Data as given in IntAct's records for PubMed 15618422.

B1: Cullin-3A (Arabidopsis thaliana (Mouse-ear cress)), Q9ZVH4 (parent)
chain: MSNQKKRNFQIEAFKHRVVVDPKYADKTWQILERAIHQIYNQDASGLSFEELYRNAYNMVLHKFGEKLYTGFIATMTSHLKEKSKLIEAAQGGSFLEELNKKWNEHNKALEMIRDILMYMDRTYIESTKKTHVHPMGLNLWRDNVVHFTKIHTRLLNTLLDLVQKERIGEVIDRGLMRNVIKMFMDLGESVYQEDFEKPFLDASSEFYKVESQEFIESCDCGDYLKKSEKRLTEEIERVAHYLDAKSEEKITSVVEKEMIANHMQRLVHMENSGLVNMLLNDKYEDLGRMYNLFRRVTNGLVTVRDVMTSHLREMGKQLVTDPEKSKDPVEFVQRLLDERDKYDKIINTAFGNDKTFQNALNSSFEYFINLNARSPEFISLFVDDKLRKGLKGITDVDVEVILDKVMMLFRYLQEKDVFEKYYKQHLAKRLLSGKTVSDDAERSLIVKLKTECGYQFTSKLEGMFTDMKTSEDTMRGFYGSHPELSEGPTLIVQVLTTGSWPTQPAVPCNLPAEVSVLCEKFRSYYLGTHTGRRLSWQTNMGTADIKAIFGKGQKHELNVSTFQMCVLMLFNNSDRLSYKEIEQATEIPAADLKRCLQSLACVKGKNVIKKEPMSKDIGEEDLFVVNDKFTSKFYKVKIGTVVAQKETEPEKQETRQRVEEDRKPQIEAAIVRIMKSRKILDHNNIIAEVTKQLQPRFLANPTEIKKRIESLIERDFLERDSTDRKLYRYLA
partner: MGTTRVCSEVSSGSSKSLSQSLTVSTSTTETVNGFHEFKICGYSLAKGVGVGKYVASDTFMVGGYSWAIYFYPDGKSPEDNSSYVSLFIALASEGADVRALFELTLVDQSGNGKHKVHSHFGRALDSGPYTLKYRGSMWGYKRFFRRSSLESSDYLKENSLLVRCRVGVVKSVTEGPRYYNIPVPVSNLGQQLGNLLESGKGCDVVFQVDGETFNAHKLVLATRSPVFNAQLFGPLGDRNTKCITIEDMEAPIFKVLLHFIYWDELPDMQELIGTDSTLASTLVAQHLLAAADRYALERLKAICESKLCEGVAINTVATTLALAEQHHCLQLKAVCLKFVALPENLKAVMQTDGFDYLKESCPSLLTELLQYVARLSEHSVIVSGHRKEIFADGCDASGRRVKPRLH
B2: BTB/POZ and MATH domain-containing protein 1 (Arabidopsis thaliana (Mouse-ear cress)), Q8L765 (parent)
chain: B1 partner
partner: B1 chain

Variants of: B1
Settings: with bpm1_arath BPM1, Q8L765

| effect of a mutation on the interaction | Variant |
| --- | --- |
| decreasing interaction | S48A;F49A |

Variants of: B2
Settings: with cul3a_arath CUL3A, Q9ZVH4

| effect of a mutation on the interaction | Variant |
| --- | --- |
| decreasing interaction | D204A |
| decreasing interaction | D293A |
| decreasing interaction | Y295A |
